Our source for the EC50 values is patent US20200165343A1 (Dana-Farber, published 2020).

Assay [1] deals with MICA extracellular domain (α1-α3 domains), allele not stated (human) (UniProt Q29983). Description: fluorescence ELISA (DELFIA): immobilized MICA extracellular domain, antibody titrated, biotinylated anti-mouse IgG + Europium-streptavidin.
Assay [2] addresses T1, MICA extracellular domain (α1-α3 domains), allele not stated (human, UniProt Q29983 24-307).
T1 construct: extracellular domain; also called MICA α1-α3 domains; full-length extracellular domain
T1 sequence (looked up): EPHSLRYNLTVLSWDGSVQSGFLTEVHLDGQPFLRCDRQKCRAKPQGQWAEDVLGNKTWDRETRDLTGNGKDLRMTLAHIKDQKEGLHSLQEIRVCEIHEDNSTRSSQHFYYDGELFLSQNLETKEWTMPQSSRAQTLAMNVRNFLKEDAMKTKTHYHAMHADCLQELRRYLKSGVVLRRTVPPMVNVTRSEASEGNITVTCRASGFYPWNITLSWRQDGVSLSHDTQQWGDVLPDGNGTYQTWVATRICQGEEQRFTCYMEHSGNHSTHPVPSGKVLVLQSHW
Described as above.

On to “mAb 6D4 (anti-MICA/B antibody, clone 6D4, Biolegend; specific for the MICA α1-α2 domains)”, for which the EC50 in assay [1] is 1 µg/mL.

B1: mAb 7C6 (parental murine IgG2b monoclonal antibody specific for the MICA/B α3 domain) (antibody, V domains shown)
VH: QIQLVQSGPELKKPGETVKVSCKASGYMFTNYAMNWVKQAPEKGLKWMGWINTHTGDPTYADDFKGRIAFSLETSASTAYLQINNLKNEDTATYFCVRTYGNYAMDYWGQGTSVTVSS
VL: DIQMTQTTSSLSASLGDRVTISCSASQDISNYLNWYQQKPDGTVKLLIYDTSILHLGVPSRFSGSGSGTDYSLTISNLEPEDIATYYCQQYSKFPRTFGGGTTLEIK
notes: Mouse hybridoma antibody; also called 7C6 mAb; 7C6-mIgG2b
B1: the EC50 in assay [2] came out at 1 µg/mL.

A word on the EC50: it is the concentration that produces a half-maximal response.
